In patent US20160137740A1 (AstraZeneca / MedImmune, published 2016):

Key:
Human OX40 [1] = target: T1, Human OX40 (human, UniProt P43489 29-277); assay: cell-based or functional assay
T1 sequence: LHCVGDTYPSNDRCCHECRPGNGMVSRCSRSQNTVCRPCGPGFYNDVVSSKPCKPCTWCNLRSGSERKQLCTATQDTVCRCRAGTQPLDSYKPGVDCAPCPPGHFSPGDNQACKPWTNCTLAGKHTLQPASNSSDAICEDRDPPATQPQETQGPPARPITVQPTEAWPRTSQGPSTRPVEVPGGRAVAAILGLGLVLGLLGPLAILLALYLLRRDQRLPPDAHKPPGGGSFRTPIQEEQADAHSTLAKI

[2] = target: T2, Recombinant human TNFRSF16 (NGFR) (human, UniProt P08138 29-250); assay: ELISA, plate coated with a dilution series of the recombinant TNFRSF protein [panel B]
T2 construct: Plate-adsorbed antigen of the ELISA
T2 sequence (looked up): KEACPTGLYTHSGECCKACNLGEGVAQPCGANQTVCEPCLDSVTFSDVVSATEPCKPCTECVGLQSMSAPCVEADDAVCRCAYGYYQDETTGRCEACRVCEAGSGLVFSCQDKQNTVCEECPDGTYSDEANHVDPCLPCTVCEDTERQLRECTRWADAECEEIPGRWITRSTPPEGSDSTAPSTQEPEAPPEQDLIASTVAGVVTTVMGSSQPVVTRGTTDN
Description: (§1) An eight point, two-fold dilution series of each recombinant human TNFRSF protein was prepared after dilution of stock proteins to 5 μg/mL in PBS. Subsequently, 50 μL of each antigen dilution was transferred in duplicate to wells of a Nunc 96-well MaxiSorp flat bottom plate, and incubated overnight at 4° C. to adsorb proteins to the plate. Afterwards, plates were washed three times with PBS in a BioTek® plate washer to remove unbound protein. Anti OX40 mAb29, 9B12, and control antibodies were diluted in PBS to a final concentration of 10 μg/mL, and 50 μL of mAb were added to each well and incubated at room temperature for one hour to bind mAb to plate-bound protein. Thereafter, wells were washed with PBS/Tween-20 0.1% (volume/volume) using a BioTek® plate washer. HRP conjugated goat anti-human or goat anti-mouse secondary antibodies at 10 μg/mL was added to each well and incubated at room temperature for 1 hour. After three washes in PBS/Tween-20 0.1%, 50 μL of TMB substrate was added to each well and incubated at room temperature for 5 minutes to develop the colorimetric product. Reactions were stopped by adding 50 μL of 0.5 molar H₂SO₄ to wells, and plates read immediately at 450 nm using an Envision C plate reader for detection of the colorimetric product.

[3] = target: T3, Recombinant human TNFRSF1β (TNFRII) (human, UniProt P20333 23-257); assay: as above
T3 construct: Plate-adsorbed antigen of the ELISA; also called TNFR2; TNFRSF1B
T3 sequence (looked up): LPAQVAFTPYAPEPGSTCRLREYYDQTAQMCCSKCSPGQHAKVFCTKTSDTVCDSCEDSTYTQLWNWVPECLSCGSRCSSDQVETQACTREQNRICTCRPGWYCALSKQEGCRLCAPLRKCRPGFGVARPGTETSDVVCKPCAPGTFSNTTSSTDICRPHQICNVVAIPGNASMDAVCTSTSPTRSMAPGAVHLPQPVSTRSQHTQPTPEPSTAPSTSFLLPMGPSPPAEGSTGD
Description: as §1

[4] = target: T4, Recombinant human TNFRSF18 (GITR) (human, UniProt Q9Y5U5 26-162, limits assumed); assay: as above
T4 construct: Plate-adsorbed antigen of the ELISA
T4 sequence (looked up): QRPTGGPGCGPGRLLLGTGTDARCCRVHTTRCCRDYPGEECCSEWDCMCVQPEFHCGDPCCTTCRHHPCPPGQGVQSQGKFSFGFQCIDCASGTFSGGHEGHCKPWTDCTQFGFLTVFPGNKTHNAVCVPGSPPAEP
Description: as §1

[5] = target: T5, Recombinant human TNFRSF9 (CD137) (human, UniProt Q07011 24-186, limits assumed); assay: as above
T5 construct: Plate-adsorbed antigen of the ELISA
Description: as §1

[6] = target: T6, Recombinant human TNFRSF14 (HVEM) (human, UniProt Q92956 39-202, limits assumed); assay: as above
T6 construct: Plate-adsorbed antigen of the ELISA
T6 sequence (looked up): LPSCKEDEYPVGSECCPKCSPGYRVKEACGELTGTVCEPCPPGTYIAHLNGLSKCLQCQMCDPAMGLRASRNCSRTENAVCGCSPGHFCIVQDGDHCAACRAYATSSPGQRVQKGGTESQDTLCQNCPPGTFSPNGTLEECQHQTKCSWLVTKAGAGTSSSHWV
Description: as §1

[7] = target: T7, Recombinant human TNFRSF11A (RANK) (human, UniProt Q9Y6Q6 30-212); assay: as above
T7 construct: Plate-adsorbed antigen of the ELISA; also called CD265
T7 sequence (looked up): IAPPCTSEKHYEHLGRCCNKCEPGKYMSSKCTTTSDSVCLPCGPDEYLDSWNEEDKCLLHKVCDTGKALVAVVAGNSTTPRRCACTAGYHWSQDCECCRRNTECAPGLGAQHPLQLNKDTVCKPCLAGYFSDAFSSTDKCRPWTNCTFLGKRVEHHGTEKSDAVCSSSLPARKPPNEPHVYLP
Description: as §1

[8] = target: T8, Recombinant human TNFRSF5 (CD40) (human, UniProt P25942 21-193); assay: as above
T8 construct: Plate-adsorbed antigen of the ELISA
T8 sequence (P25942 21-193 limits assumed): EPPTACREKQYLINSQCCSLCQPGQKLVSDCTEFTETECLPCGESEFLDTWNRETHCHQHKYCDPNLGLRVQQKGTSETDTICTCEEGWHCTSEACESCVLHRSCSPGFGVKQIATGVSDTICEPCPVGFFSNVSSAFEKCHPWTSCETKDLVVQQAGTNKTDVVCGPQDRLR
Description: as §1

Human OX40 [9] = target: T1, Human OX40; assay: flow cytometry, equilibrium binding to activated primary human CD4+ T cells; apparent Kd, mean of 6 donors (StdErr)
Description: OX40mAb24 (10 μg/mL) or 9B12 (10 μg/mL) was diluted over a 17 point 2-fold dilution series. OX40mAb24 was added to 100,000 cells (activated primary CD4⁺ T cells or human OX40-overexpressing Jurkat NFkB-luciferase clone 64 cells) per well and incubated for one hour at 4° C. For background binding subtraction, cells were incubated in the presence of secondary antibody alone. […] Following secondary antibody incubation, cells were washed and suspended in 100 μL FACS buffer for flow cytometry analysis on a BD LSRII flow cytometer as described below.

EC50, IL13 release, donor 645 (Human OX40 [1]): 5.45 nM
EC50, IL13 release, donor 651 (Human OX40 [1]): 1770 pM
EC50, IL13 release, donor 661 (Human OX40 [1]): 238 pM
binding result [2]: no binding
binding result [3]: no binding
binding result [4]: no binding
binding result [5]: no binding
binding result [6]: no binding
binding result [7]: no binding
binding result [8]: no binding
Kd (Human OX40 [9]): 0.669 nM
B1: 9B12 (antibody, mouse IgG1, V domains shown)
VH: EVQLQESGPSLVKPSQTLSLTCSVTGDSFTSGYWNWIRKFPGNRLEYMGYISYNGITYHNPSLKSRISITRDTSKNHYYLQLNSVTTEDTATYFCARYRYDYDGGHAMDYWGQGTLVTVSS
VL: DIQMTQTTSSLSASLGDRVTISCRASQDISNYLNWYQQKPDGTVKLLIYYTSKLHSGVPSRFSGSGSRTDYSLTITDLDQEDIATYFCQQGSALPWTFGQGTKVEIKR
notes: mouse IgG1 kappa; also called murine mAb 9B12; mouse anti-human OX40 IgG1κ monoclonal antibody
